In US20090068110A1, “ANTIBODIES TO INSULIN-LIKE GROWTH FACTOR RECEPTOR” (Genentech, Inc., priority 2006, published 2009):
Positions count from the first letter of the chain named. Entries after “also recorded” stand apart in the source; their conditions may differ. Where two headings read alike, the source gives them in different places.

Assays:
[1] = biological target: human IGF-1R-ECD (secreted recombinant extracellular domain, amino acids 1-902, tagged with 10 or 12 histidine residues at the carboxyl terminus) (human) (UniProt P08069); experiment: BIACORE surface plasmon resonance: IGF-1R immobilized on CM5 chip (about 500 RU), Fab injected 500-3.1 nM, 25 C, 1:1 Langmuir model
human IGF-1R-ECD = biological target: T1, human IGF-1R-ECD (Homo sapiens, UniProt P08069); experiment: phage-competition ELISA (phage IC50); format: binding
T1 construct: containing the extracellular domain (ECD, amino acids 1-902) tagged with 10 or 12 histidine residues at the carboxyl terminus; His10 or His12 (C); made in house; host or cells: CHO cells
Description: MAXISORP™ microtiter plates were coated with human IGF-1R-ECD at 5 μg/ml in PBS overnight and then blocked with CASEIN BLOCKER™ reagent (Pierce Biotechnology, Inc.). Phage from culture supernatants were incubated with serially diluted IGF-1R-ECD in PBS with 0.05% TWEEN 20™ surfactant (PBST) containing 1% bovine serum albumin (BSA) in a tissue-culture microtiter plate for 1 hour, after which 80 μl of the mixture was transferred to the target-coated wells for 15 minutes to capture unbound phage. The plate was washed with PBST, and HRP-conjugated anti-M13 (Amersham Pharmacia Biotech) was added (1:5000 in PBST containing 1% BSA) for 40 minutes. The plate was washed with PBST and developed by adding tetramethylbenzidine (TMB) substrate (Kirkegaard and Perry Laboratories, Gaithersburg, Md.). The absorbance at 450 nm was plotted as a function of target concentration in solution to determine an IC50. […] For the humanized hybridoma-derived clones, 2B4, 9F2, and 10H5, phage-Fab was used.
This assay was conducted as described in Section 1-II-A-(4) of this Example. For the YW95-phage-derived clones from the VH/VL phage library, phage-Fab-Zip was used.

cynomolgus-monkey IGF-1R = experiment: BIACORE surface-plasmon resonance, cynomolgus-monkey IGF-1R; format: binding; conditions: IgG, FIG. 15
Description: Binding affinities of selected antibodies to IGF-1R were determined by surface plasmon resonance measurements on a BIACORE™ 3000 instrument (BIAcore, Inc.). Human, murine, or cynomolgus-monkey IGF-1R was immobilized at a density of about 500 RU on the flow cells of a PIONEER™ CM5 sensor chip. Immobilization was achieved by random coupling through amino groups using a protocol provided by the manufacturer. Sensorgrams were recorded for binding of anti-IGF-1R Fab or IgG to these surfaces by injection of a series of solutions ranging from 500 nM to 3.1 nM and 250 nM to 0.78 nM in two-fold increments, respectively. The signal from the reference cell was subtracted from the observed sensorgram. Kinetic constants were calculated by non-linear regression analysis of the data according to a 1:1 Languir binding model using software supplied by the manufacturer.

IGF-1R = IGF-1R (Homo sapiens, UniProt P08069); experiment: antibody-induced IGF-1R down-regulation in MCF7 cells, Western blotting; format: cell-based; design: IGF-1R is normally localized at the plasma membrane of MCF7 cells; endogenous in cells; host or cells: MCF7; conditions: 10 μg/ml, 1, 4, 8 or 24 hours, 10% serum
Description: Further exploration of the mechanism of action of anti-IGF-1R antibodies was carried out by testing the ability of the antibodies of the invention, particularly human chimeric antibodies of 2B4, 9F2, 10H5, as well as human phage antibody YW95.6, to induce IGF-1R down-regulation. MCF7 cells were treated with various antibodies (10 μg/ml) for 1, 4, 8, or 24 hours in the presence of 10% serum-containing medium. The cell lysates were harvested, separated by SDS-PAGE, and analyzed for IGF-1R levels by Western blotting using an anti-IGF-1R beta-chain antibody (Cell Signaling Technology, Inc.; Beverly, Mass., USA) or anti-beta-actin antibody.
In a separate experiment, MCF7 cells were treated with serially diluted h10H5, and the cell lysates were analyzed for IGF-1R and IR levels using anti-IGF-1R and anti-IR β-chain antibodies at 1, 2, 4, and 8 hours post-continuous treatment.

MCF7 cells = experiment: cell viability assay ([…]-GLO), MCF7; format: cell-based, human
Description: The different cell lines were cultured in their respective culture media at 37° C. in a humidified atmosphere of 5% CO2. Subsequently, cells were detached from tissue-culture flasks using the cell-dissociation solution, TRIPLE SELECT™ solution (InVitrogen, Carlsbad, Calif., USA), and centrifuged at 1000 rpm for five minutes. Detached cells were washed once with PBS, counted, and seeded in 96-well plates (Corning, N.Y., USA) at 2000 cells per well in 100 μL of culture media. After an overnight incubation at 37° C. in a humidified atmosphere of 5% CO2, the cell-culture medium was replaced with 50 μL of starvation medium consisting of serum-free RPMI 1640™ medium without phenol red. The cells were then starved for five hours in the incubator before addition of 25 μL of each anti-IGF-1R monoclonal antibody at various dilutions in serum-free RPMI 1640™ phenol red-free media. Later, 25 μL of phenol red-free RPMI 1640™ media supplemented with 4% of fetal bovine serum (FBS) (Sigma) with or without 4 ng/ml of human recombinant IGF-I were added on top of the 50 μL of antibody. The cells were then placed at 37° C. with 5% CO2 for 5 to 6 days. At the end of the assay, cell viability was measured using the […]-GLO® kit according to the manufacturer's instructions (Promega, Madison, Wis., USA).
For the cell viability assay, MCF7 cells were seeded onto 96-well plates at 2000 cells/well and incubated overnight at 37° C. in a humidified atmosphere of 5% CO2/95% air in RPMI 1640™ medium supplemented with 10% FBS (Sigma, St. Louis, Mo.) and 1% GLUTAMAX™ reagent (Promega, Madison, Wis.). The next day cells were starved in serum-free RPMI 1640™ medium (phenol red-free) for five hours followed by addition of serially diluted human chimeric versions of 9F2, 2B4, and 10H5, as well as h10H5.vX, for one hour. Subsequently, phenol red-free PRMI 1640™ medium supplemented with FBS or IGF-I was added to reach a final concentration of 1% FBS and 1 ng/mL IGF-I. Cells were then incubated with continuous IGF-1R antibody exposure. After five days, the cell viability was then determined using a […]-GLO™ kit (Promega, Madison, Wis.) according to the manufacturer's instructions.

[2] = YW95 phage-derived clones displayed as bivalent Fab-Zip on phage, read-out: phage IC50

B1: murine 10H5 Fab (Fab, V domains shown)
VH: QVQLQQPGAELVKPGASVTLSCKASGYTFTRFWIHWVKQRPGQGLEWIGEINPSNGRTNYNENFKNKATLTVDTSSSTAYMQLSSLTSEVSVVYYCARGGRLDQWGQGTT
VL: DIVMTQSQKFMSTSLGDRVSVTCKASQNVGSNVAWYQQKPGQSPEALIYSASYRYSGVPDRFTGSGSGTDFTLTISNVQSEDLAEYFCHQYNNYPYTFGGGTKVEIKR
Kd [1]: 22 nM

B2: h2B4.vX: humanized anti-IGF-1R antibody, direct HVR graft of murine 2B4; VL SEQ ID NO:44, VH SEQ ID NO:47 (antibody, V domains shown)
VH: EVQLVESGGGLVQPGGSLRLSCAASGYNLANYGLNWVRQAPGKGLEWVGWINTNTGAPTYAEEFKGRFTISADTSKNTAYLQMNSLRAEDTAVYYCARSIYYYASRYFNVWGQGTL
VL: DIQMTQSPSSLSASVGDRVTITCRASQDISNYLNWYQQKPGKAPKLLIYYTSRLHSGVPSRFSGSGSGTDFTLTISSLQPEDFATYYCQQGNTLPWTFGQGTKVEIKR
modifications: sequence is synthesized
binding affinity (phage IC50) against IGF-1R-ECD, in words (human IGF-1R-ECD; monovalent phage-Fab, after HVR grafting): micromolar binding affinity; also recorded: decreased into the micromolar range

B3: h9F2.vX: humanized anti-IGF-1R antibody, direct HVR graft of murine 9F2; VL SEQ ID NO:49, VH SEQ ID NO:51 (antibody, V domains shown)
VH: B2 VH with N28T, L34M, A57K, A61S, E62D, A104G
VL: B2 VL with S30N, N34T
modifications: sequence is synthesized
IC50 (human IGF-1R-ECD; humanized hybridoma-derived clones displayed on phage as monovalent Fab, read-out: binding affinity (phage IC50) against IGF-1R-ECD): 60 nM | binding to human versus cyno IGF-1R (cynomolgus-monkey IGF-1R): comparable for human and cyno IGF-1R

B4: YW95.3: anti-IGF-1R phage-display clone from VH/VL library; VL SEQ ID NO:66, VH SEQ ID NO:70 (antibody, V domains shown)
VH: EVQLVESGGGLVQPGGSLRLSCAASGFTFSSYAMSWVRQAPGKGLEWVSRISPSGGSTYYADSVKGRFTISADTSKNTAYLQMNSLRAEDTAVYYCAREHYFHWGGMDVWGQGTL
VL: DIQMTQSPSSLSASVGDRVTITCRASQSISSYLAWYQQKPGKAPKLLIYGASSRASGVPSRFSGSGSGTDFTLTISSLQPEDFATYYCQQYYSSPLTFGQGTKVEIKR
modifications: sequence is synthesized
IC50 (human IGF-1R-ECD; [2]): 20 nM

B5: YW95.6: human phage antibody clone against IGF-1R; VL SEQ ID NO:67, VH SEQ ID NO:71 (antibody, V domains shown)
VH: B4 VH with H100E, F102Y, H103Y, G106A
VL: B4 VL
modifications: sequence is synthesized
IC50 (human IGF-1R-ECD; [2]): 20 nM | IGF-1R down-regulation (IGF-1R): rapidly down-regulated and reached maximal reduction by eight hours | effect on the MCF7 cell viability compared to the media control (MCF7 cells; initial screen, 0.12 to 10 μg/ml): no effect

B6: YW95.81: anti-IGF-1R phage-display clone from VH/VL library; VL SEQ ID NO:68, VH SEQ ID NO:72 (antibody, V domains shown)
VH: EVQLVESGGGLVQPGGSLRLSCAASGFSFSSQGISWVRQAPGKGLEWVSTISYDGSTYYADSVKGRFTISADTSKNTAYLQMNSLRAEDTAVYYCARQFMLWGKQFGMDVWGQGTL
VL: B4 VL with Y91R, Y92F, S94V, L96F
modifications: sequence is synthesized
IC50 (human IGF-1R-ECD; [2]): 20 nM

B7: YW95.87: anti-IGF-1R phage-display clone from VH/VL library; VL SEQ ID NO:69, VH SEQ ID NO:73 (antibody, V domains shown)
VH: B4 VH with H100S, F102Y, H103E, G106A
VL: B4 VL
modifications: sequence is synthesized
IC50 (human IGF-1R-ECD; [2]): 20 nM

B8: murine 2B4 Fab (Fab, V domains shown)
VH: QIQLVQSGPELKKPGETVKISCKASGYNLANYGLNWVKQAPGEGLKWMGWINTNTGAPTYAEEFKGRFVFFLETSASTAYLQINNLSDEDTATYFCARSIYYYASRYFNVWGAGTS
VL: DIQMTQTTSSLSASLGDKVTISCRASQDISNYLNWYQQKPDGTIKLLIYYTSRLHSGIPSRFSGSGSGTDYSLTISNLEQEDIATYFCQQGNTLPWTFGGGTKVEIKR
Kd [1]: 24 nM

B9: chimeric 2B4: human chimeric version of murine 2B4 (antibody, V domains shown)
VH: B8 VH
VL: B8 VL
IGF-1R down-regulation (IGF-1R): rapidly down-regulated and reached maximal reduction by eight hours | comparison of inhibitory effect on MCF7 proliferation / viability (MCF7 cells; in the presence of IGF-I): equivalent at decreasing the MCF7 cell viability
